From patent US20240376639A1 (ELASMOGEN, published 2024)

How the values were obtained:
human ROR1 [1] = target: T1, human ROR1 (human, UniProt Q01973 30-403, limits assumed); assay: BIAcore (SPR)
T1 construct: The general ELISA protocol coats hROR1-Fc; also called hROR1; huROR1

hDLL4-Fc = hDLL4-Fc (human, UniProt Q9NR61 27-524, limits assumed); assay: direct binding ELISA on 1 µg/mL coated hDLL4-Fc, protein input unquantified, detection with anti-poly-histidine-HRP
Human Serum Albumin = target: T2, Human Serum Albumin (human, UniProt P02768 25-609); assay: monoclonal phage ELISA, HSA as control antigen, OD450
T2 construct: Non-target control antigen in the ELISAs; also called HSA

human DLL4 = target: T3, human DLL4 (human, UniProt Q9NR61 27-524, limits assumed); assay: monoclonal phage ELISA on hDLL4, with HSA as control antigen, OD450
T3 construct: Antigen of the monoclonal phage ELISA; also called hDLL4
T3 sequence (Q9NR61 27-524 limits assumed): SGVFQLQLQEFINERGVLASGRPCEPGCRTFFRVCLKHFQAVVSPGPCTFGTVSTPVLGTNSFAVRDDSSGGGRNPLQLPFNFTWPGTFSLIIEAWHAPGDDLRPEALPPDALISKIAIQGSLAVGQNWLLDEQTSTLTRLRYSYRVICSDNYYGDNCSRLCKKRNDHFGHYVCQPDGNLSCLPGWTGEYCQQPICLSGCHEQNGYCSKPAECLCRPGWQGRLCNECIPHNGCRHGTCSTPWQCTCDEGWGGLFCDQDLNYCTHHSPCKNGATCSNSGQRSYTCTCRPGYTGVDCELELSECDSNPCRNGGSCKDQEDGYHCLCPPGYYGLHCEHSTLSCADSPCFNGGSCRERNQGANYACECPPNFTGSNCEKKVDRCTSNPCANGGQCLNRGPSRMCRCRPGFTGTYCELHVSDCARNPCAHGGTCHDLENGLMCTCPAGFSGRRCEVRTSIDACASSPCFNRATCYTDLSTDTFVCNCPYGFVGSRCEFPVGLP

human ROR1 [2] = target: T1, human ROR1; assay: BLI against hROR1
human ROR1 [3] = target: T1, human ROR1; assay: kinetics against hROR1; method not named in the table (kdis heading as in the BLI table)

T1 sequence (Q01973 30-403 limits assumed): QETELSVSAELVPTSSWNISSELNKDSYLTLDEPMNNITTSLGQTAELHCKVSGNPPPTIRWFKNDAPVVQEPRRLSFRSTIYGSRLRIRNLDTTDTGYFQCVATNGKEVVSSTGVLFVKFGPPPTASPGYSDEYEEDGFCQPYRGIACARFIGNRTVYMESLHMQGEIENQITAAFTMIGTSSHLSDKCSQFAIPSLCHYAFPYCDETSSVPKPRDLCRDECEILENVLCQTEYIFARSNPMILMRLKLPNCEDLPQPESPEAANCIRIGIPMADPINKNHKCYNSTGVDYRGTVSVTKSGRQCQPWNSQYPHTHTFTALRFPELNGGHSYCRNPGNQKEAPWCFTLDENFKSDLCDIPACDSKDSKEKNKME
Sequence of hDLL4-Fc (Q9NR61 27-524 limits assumed): as the sequence (Q9NR61 27-524 limits assumed) above

| Binder | binding result (Human Serum Albumin) | binding result (human DLL4) | also measured |
| --- | --- | --- | --- |
| P3A1 WT dimer HisMyc (other, In the real molecule the two VNAR copies form one polypeptide, joined by an unprinted short peptide linker and carrying a HisMyc tag. They are given here as two separate chains because the linker letters are unknown., VNAR dimer in one chain; also called parental WT clone P3A1; WT non-humanised P3A1 clone; not shown: The short peptide linker joining the two P3A1 copies and the HisMyc tag) VNAR 1: TRVDQTPRTATKETGESLTINCVLTDTSYGLYSTSWFRKNPGTTDWERMSIGGRYVESVNKGAKSFSLRIKDLTVADSATYYCKAREARHPWLRQWYDGAGTVLTVN VNAR 2: TRVDQTPRTATKETGESLTINCVLTDTSYGLYSTSWFRKNPGTTDWERMSIGGRYVESVNKGAKSFSLRIKDLTVADSATYYCKAREARHPWLRQWYDGAGTVLTVN |  |  | Kd (human ROR1 [1]): 0.302 nM |
| 78-V3 (VNAR, Humanised VNAR (soloMER), poly-histidine tagged, expressed in E. coli; also called soloMER 78 variant V3) VNAR: TRVDQSPSSLSASVGDRVTITCVLTDTNYSLYATSWYQQKPGKTDWERMSIGGRYVESVNKGAKSFTLTISSLQPEDFATYYCRAVWFPYFISDMWDVYGGGTKVEIK |  |  | binding result (hDLL4-Fc): binds |
| 78-V4 (VNAR, Humanised VNAR (soloMER), poly-histidine tagged, expressed in E. coli; also called soloMER 78 variant V4) VNAR: TRVDQSPSSLSASVGDRVTITCVLTDTNYSLYATSWFRKNPGTTDWERMSIGGRFSGSGSKGAKSFTLTISSLQPEDFATYYCRAVWFPYFISDMWDVYGGGTKVEIK |  |  | binding result (hDLL4-Fc): binds |
| 78-V5 (VNAR, Humanised VNAR (soloMER), poly-histidine tagged, expressed in E. coli; also called soloMER 78 variant V5) VNAR: TRVDQSPSSLSASVGDRVTITCVLTDTNYSLYATSWYQQKPGKTDWERMSIGGRFSGSGSKGAKSFTLTISSLQPEDFATYYCRAVWFPYFISDMWDVYGGGTKVEIK |  |  | binding result (hDLL4-Fc): binds |
| E4V2F3 (VNAR, Clone from the E4-V2 humanised library) VNAR: ASVNQSPSSLSASVGDRVTITCVLTDTNYWYSTSWFRKNPGTTNEDRIIISGRYVESVNNGPKSFTLTISSLQPEDFATYYCRAWTSFEEQVKDVYGGGTKVEIK | no binding | binds |  |
| D3 V2 (VNAR, Humanised VNAR (soloMER)) VNAR: ASVNQSPSSLSASVGDRVTITCVLTDTSYGLYSTSWFRKNPGTTDWERMSIGGRYVESVNKRAKSFTLTISSLQPEDFATYYCKAQSGMAISTGSGHGYNWYDGAGTKVEIK |  |  | Kd (human ROR1 [2]): 18.9 nM; kon (human ROR1 [2]): 1.85e+06 M⁻¹ s⁻¹; Kd (human ROR1 [3]): 15.6 nM; koff (human ROR1 [3]): 0.0238 s⁻¹; kon (human ROR1 [3]): 1.52e+06 M⁻¹ s⁻¹ |
| D3 V5 (VNAR, Humanised VNAR (soloMER)) VNAR: ASVNQSPSSLSASVGDRVTITCVLTDTSYGLYSTSWYQQKPGTTDWERMSIGGRFSGSGSKRAKSFTLTISSLQPEDFATYYCKAQSGMAISTGSGHGYNWYDGAGTKVEIK |  |  | Kd (human ROR1 [2]): 36.2 nM |
| D3 V4 (VNAR, Humanised VNAR (soloMER)) VNAR: ASVNQSPSSLSASVGDRVTITCVLTDTSYGLYSTSWYQQKPGTTDWERMSIGGRYVESVNKRAKSFTLTISSLQPEDFATYYCKAQSGMAISTGSGHGYNWYDGAGTKVEIK |  |  | Kd (human ROR1 [2]): 58.5 nM; kon (human ROR1 [2]): 1.38e+06 M⁻¹ s⁻¹ |
| E4V2Ee8 (VNAR, Clone from the E4-V2 humanised library) VNAR: ASVNQSPSSLSASVGDRVTITCVLTGASYWYSTSWFRKNPGTTDEESMSNGGRYVESVNKRPMSFTLTISSLQPEDFATYYCRAWTSFEEQVKDVYGGGTKVEIK | no binding | binds |  |
| E4V2Cc8 (VNAR, Clone from the E4-V2 humanised library) VNAR: ASVNQSPSSLSASVGDRVTITCVLTSAGYLYATSWFRKNPGTSDKESMIIGRRYVESVNNRSMSFTLTISSLQPEDFATYYCRAWTSFEEQVKDVYGGGTKVEIK | no binding | binds |  |
| E4V2D10 (VNAR, Clone from the E4-V2 humanised library) VNAR: ASVNQSPSSLSASVGDRVTITCVLTGAGYWFATSWFRKNPGTSDKESISNSGRYVESVNKRSMSFTLTISSLQPEDFATYYCRAWTSFEEQVKDVYGGGTKVEIK | no binding | binds |  |
| E4V2Ee6 (VNAR, Clone from the E4-V2 humanised library) VNAR: ASVNQSPSSLSASVGDRVTITCVLTDTRYLYATSWFRKNPGTTNKESISNGGRYVESVNKRSMSFTLTISSLQPEDFATYYCRAWTSFEEQVKDVYGGGTKVEIK | no binding | binds |  |
| E4V2Cc9 (VNAR, Clone from the E4-V2 humanised library) VNAR: ASVNQSPSSLSASVGDRVTITCVLTGTEYLYSTSWFRKNPGTPNEDRMINGGRYVESVNKGTMSFTLTISSLQPEDFATYYCRAWTSFEEQVKDVYGGGTKVEIK | no binding | binds |  |
| E4V2Gg11 (VNAR, Clone from the E4-V2 humanised library) VNAR: ASVNQSPSSLSASVGDRVTITCVLTGTRYWFSTSWFRKNPGTTDEDSISNGGRYVESVNNGSMSFTLTISSLQPEDFATYYCRAWTSFEEQVKDVYGGGTKVEIK | no binding | binds |  |
| E4V2B9 (VNAR, Clone from the E4-V2 humanised library) VNAR: ASVNQSPSSLSASVGDRVTITCVLTGTGYWYSTSWFRKNPGTSNEDRIIIGGRYVESVNKGTKSFTLTISSLQPEDFATYYCRAWTSFEEQVKDVYGGGTKVEIK |  | binds |  |
| E4 WT (VNAR, also called pre-humanised parental clone E4 WT; Wt DLL4 VNAR) VNAR: ASVNQTPRTATKETGESLTINCVLTDTKYLYSTSWFRKNPGTTDWERMSIGGRYVESVNKGAKSFSLRIKDLTVADSATYICRAWTSFEEQVKDVYGAGTVLTVN | no binding | binds | binding result (hDLL4-Fc): binds |
| P3A1 V1 dimer HisMyc (other, In the real molecule the two VNAR copies form one polypeptide, joined by an unprinted short peptide linker and carrying a HisMyc tag. They are given here as two separate chains because the linker letters are unknown., 2x P3A1 V1 joined with a short peptide linker, with a HisMyc tag; expressed in bacteria; not shown: The short peptide linker joining the two P3A1 V1 copies and the HisMyc tag) VNAR 1: TRVDQSPSSLSASVGDRVTITCVLTDTSYGLYSTSWFRKNPGTTDWERMSIGGRYVESVNKGAKSFTLTISSLQPEDFATYYCKAREARHPWLRQWYDGAGTKVEIK VNAR 2: TRVDQSPSSLSASVGDRVTITCVLTDTSYGLYSTSWFRKNPGTTDWERMSIGGRYVESVNKGAKSFTLTISSLQPEDFATYYCKAREARHPWLRQWYDGAGTKVEIK |  |  | Kd (human ROR1 [1]): 0.179 nM |
| 78WT (VNAR, Parental non-humanised VNAR 78; also called native (WT) anti-DLL4 VNAR 78) VNAR: TRVDQTPRTATKETGESLTINCVLTDTNYSLYATSWFRKNPGTTDWERMSIGGRYVESVNKGAKSFSLRIKDLTVADSATYICRAVWFPYFISDMWDVYGAGTVLTVN |  |  | binding result (hDLL4-Fc): binds |
